How the values were obtained:
Assay in all cases: two-hybrid library CCNG1;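 note: natural log of median RNA to DNA barcode read ratio; higher means stronger binding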
4H1985-bH = biological target: T1, 4H1985-bH
T1 chain: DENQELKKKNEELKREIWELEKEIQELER

4H906-bH = biological target: T2, 4H906-bH
T2 chain: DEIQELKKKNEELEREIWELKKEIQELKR

4H3926-bH = biological target: T3, 4H3926-bH
T3 chain: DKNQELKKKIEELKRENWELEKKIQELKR

4H3858-bH = biological target: T4, 4H3858-bH
T4 chain: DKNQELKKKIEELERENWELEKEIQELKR

4H1710-bH = biological target: T5, 4H1710-bH
T5 chain: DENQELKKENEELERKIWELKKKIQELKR

4H932-bN = biological target: T6, 4H932-bN
T6 chain: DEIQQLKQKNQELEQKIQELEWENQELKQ

4H3782-bH = biological target: T7, 4H3782-bH
T7 chain: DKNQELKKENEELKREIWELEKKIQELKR

4H730-bA = biological target: T8, 4H730-bA
T8 chain: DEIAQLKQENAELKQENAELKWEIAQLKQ

4H3613-bH = biological target: T9, 4H3613-bH
T9 chain: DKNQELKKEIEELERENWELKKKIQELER

4H3497-bH = biological target: T10, 4H3497-bH
T10 chain: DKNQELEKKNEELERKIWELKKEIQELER

4H570-bH = biological target: T11, 4H570-bH
T11 chain: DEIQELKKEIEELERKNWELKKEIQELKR

4H1899-bH = biological target: T12, 4H1899-bH
T12 chain: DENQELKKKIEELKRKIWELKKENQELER

4H3974-bH = biological target: T13, 4H3974-bH
T13 chain: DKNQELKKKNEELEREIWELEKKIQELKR

4H1373-bH = biological target: T14, 4H1373-bH
T14 chain: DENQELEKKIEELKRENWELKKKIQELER

4H626-bH = biological target: T15, 4H626-bH
T15 chain: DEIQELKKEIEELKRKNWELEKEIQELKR

4H3462-bH = biological target: T16, 4H3462-bH
T16 chain: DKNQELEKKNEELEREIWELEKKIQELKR

4H3277-bH = biological target: T17, 4H3277-bH
T17 chain: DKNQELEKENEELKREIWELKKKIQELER

4H3298-bH = biological target: T18, 4H3298-bH
T18 chain: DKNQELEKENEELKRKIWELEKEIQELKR

4H3175-bH = biological target: T19, 4H3175-bH
T19 chain: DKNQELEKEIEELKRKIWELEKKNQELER

O8 = biological target: T20, O8
T20 chain: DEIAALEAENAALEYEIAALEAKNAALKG

4H3843-bH = biological target: T21, 4H3843-bH
T21 chain: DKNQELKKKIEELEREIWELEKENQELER

4H1449-bH = biological target: T22, 4H1449-bH
T22 chain: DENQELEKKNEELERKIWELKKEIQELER

4H850-bH = biological target: T23, 4H850-bH
T23 chain: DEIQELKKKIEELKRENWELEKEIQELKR

4H591-bH = biological target: T24, 4H591-bH
T24 chain: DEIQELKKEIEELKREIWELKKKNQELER

4H3162-bH = biological target: T25, 4H3162-bH
T25 chain: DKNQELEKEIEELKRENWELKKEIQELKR

4H3817-bH = biological target: T26, 4H3817-bH
T26 chain: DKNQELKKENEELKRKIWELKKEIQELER

4H3628-bH = biological target: T27, 4H3628-bH
T27 chain: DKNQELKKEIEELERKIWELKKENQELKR

4H1544-bH = biological target: T28, 4H1544-bH
T28 chain: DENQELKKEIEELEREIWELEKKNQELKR

4H3926-bN = biological target: T29, 4H3926-bN
T29 chain: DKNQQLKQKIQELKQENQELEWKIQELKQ

4H968-bN = biological target: T30, 4H968-bN
T30 chain: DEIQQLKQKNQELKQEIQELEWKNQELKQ

4H918-bN = biological target: T31, 4H918-bN
T31 chain: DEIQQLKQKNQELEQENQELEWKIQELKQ

4H797-bN = biological target: T32, 4H797-bN
T32 chain: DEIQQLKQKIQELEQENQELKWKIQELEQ

4H346-bN = biological target: T33, 4H346-bN
T33 chain: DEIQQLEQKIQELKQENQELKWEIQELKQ

4H1831-bN = biological target: T34, 4H1831-bN
T34 chain: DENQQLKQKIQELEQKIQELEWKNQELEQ

4H953-bN = biological target: T35, 4H953-bN
T35 chain: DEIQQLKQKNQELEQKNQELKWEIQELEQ

4H780-bN = biological target: T36, 4H780-bN
T36 chain: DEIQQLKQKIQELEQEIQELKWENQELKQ

4H2627-bN = biological target: T37, 4H2627-bN
T37 chain: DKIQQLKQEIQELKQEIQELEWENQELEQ

4H754-bN = biological target: T38, 4H754-bN
T38 chain: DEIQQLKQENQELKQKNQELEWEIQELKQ

4H855-bN = biological target: T39, 4H855-bN
T39 chain: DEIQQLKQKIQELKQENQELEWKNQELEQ

4H575-bN = biological target: T40, 4H575-bN
T40 chain: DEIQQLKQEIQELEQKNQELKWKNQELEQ

4H457-bN = biological target: T41, 4H457-bN
T41 chain: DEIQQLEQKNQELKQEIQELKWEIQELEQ

4H3427-bN = biological target: T42, 4H3427-bN
T42 chain: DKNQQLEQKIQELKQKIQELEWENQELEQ

4H3112-bN = biological target: T43, 4H3112-bN
T43 chain: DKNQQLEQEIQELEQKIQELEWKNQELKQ

4H2702-bN = biological target: T44, 4H2702-bN
T44 chain: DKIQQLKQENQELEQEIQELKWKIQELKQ

4H2586-bN = biological target: T45, 4H2586-bN
T45 chain: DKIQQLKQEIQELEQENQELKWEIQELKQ

4H4073-bN = biological target: T46, 4H4073-bN
T46 chain: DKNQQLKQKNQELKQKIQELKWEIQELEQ

4H683-bN = biological target: T47, 4H683-bN
T47 chain: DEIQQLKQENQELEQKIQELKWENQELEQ

4H170-bN = biological target: T48, 4H170-bN
T48 chain: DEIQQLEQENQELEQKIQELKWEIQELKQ

4H3010-bN = biological target: T49, 4H3010-bN
T49 chain: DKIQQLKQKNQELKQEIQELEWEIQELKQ

4H2673-bN = biological target: T50, 4H2673-bN
T50 chain: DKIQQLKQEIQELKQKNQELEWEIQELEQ

P5SHb = biological target: T51, P5SHb
T51 chain: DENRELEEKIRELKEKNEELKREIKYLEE

P3SHb = biological target: T52, P3SHb
T52 chain: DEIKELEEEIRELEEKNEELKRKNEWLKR

P7SHb = biological target: T53, P7SHb
T53 chain: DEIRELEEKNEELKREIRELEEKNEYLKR

P2SHb = biological target: T54, P2SHb
T54 chain: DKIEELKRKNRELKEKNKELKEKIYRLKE

P4SHb = biological target: T55, P4SHb
T55 chain: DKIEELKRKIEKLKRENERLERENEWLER

P8SHb = biological target: T56, P8SHb
T56 chain: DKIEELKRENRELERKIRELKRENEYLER

P9SHb = biological target: T57, P9SHb
T57 chain: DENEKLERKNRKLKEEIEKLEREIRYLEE

P6SHb = biological target: T58, P6SHb
T58 chain: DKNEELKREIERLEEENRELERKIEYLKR

B1: 4H1373-bH (peptide)
chain: DENQELEKKIEELKRENWELKKKIQELER
4H1985-bH
  interaction score: 0.5
4H906-bH
  interaction score: -0.627
4H3926-bH
  interaction score: 1.67
4H3858-bH
  interaction score: 0.654
4H1710-bH
  interaction score: -2.29
4H932-bN
  interaction score: 0.58
4H3782-bH
  interaction score: -0.345
4H730-bA
  interaction score: -0.488
4H3613-bH
  interaction score: 0.423
4H3497-bH
  interaction score: -0.763
4H570-bH
  interaction score: 0.082
4H1899-bH
  interaction score: -2
4H3974-bH
  interaction score: 0.369
4H1373-bH
  interaction score: 0.778
4H626-bH
  interaction score: -0.984
4H3462-bH
  interaction score: -0.048
4H3277-bH
  interaction score: -0.681
4H3298-bH
  interaction score: 0.0783
4H3175-bH
  interaction score: 0.281
O8
  interaction score: -0.719
4H3843-bH
  interaction score: -0.0729
4H1449-bH
  interaction score: -1.04
4H850-bH
  interaction score: -0.156
4H591-bH
  interaction score: -0.84
4H3162-bH
  interaction score: 0.645
4H3817-bH
  interaction score: -0.502
4H3628-bH
  interaction score: -1.36
4H1544-bH
  interaction score: -0.374

B2: 4H170-bN (peptide)
chain: DEIQQLEQENQELEQKIQELKWEIQELKQ
4H3926-bN
  interaction score: 0.153
4H968-bN
  interaction score: 1.15
4H918-bN
  interaction score: -0.811
4H797-bN
  interaction score: -0.668
4H346-bN
  interaction score: -0.772
4H1831-bN
  interaction score: -1.26
4H953-bN
  interaction score: -1.71
4H780-bN
  interaction score: -0.283
4H2627-bN
  interaction score: -1.42
4H754-bN
  interaction score: -0.104
4H855-bN
  interaction score: 0.202
4H575-bN
  interaction score: 0.401
4H457-bN
  interaction score: -0.694
4H3427-bN
  interaction score: -0.458
4H3112-bN
  interaction score: 0.507
4H2702-bN
  interaction score: 1.32
4H2586-bN
  interaction score: -1.86
4H4073-bN
  interaction score: 1.61
4H683-bN
  interaction score: -0.329
4H170-bN
  interaction score: 0.334
4H3010-bN
  interaction score: 2.14
4H2673-bN
  interaction score: -0.742

B3: P2SHb (peptide)
chain: DKIEELKRKNRELKEKNKELKEKIYRLKE
P5SHb
  interaction score: 0.588
P3SHb
  interaction score: -0.091
P7SHb
  interaction score: 0.49
P2SHb
  interaction score: -0.669
P4SHb
  interaction score: 0.291
P8SHb
  interaction score: -0.265
P9SHb
  interaction score: -1.55
P6SHb
  interaction score: 0.195
